The record followed here is article PMC6591005.

For the experiment, the target named is GII.4.2002 P domain (human norovirus GII.4 2002 (Farmington Hills)). The experiment is described as follows: crystal structure.

Take “GII.4.2002 P domain (domain or fragment)”: the stoichiometry N was 2.

Broadly, the stoichiometry N is a count of units in the complex or per binding partner.
